Measured values published in US20190153119A1.

Key:
[1] = target: TF on A431 cells (human) (UniProt P13726); assay: flow; conditions: Fc fusion
[2] = target: TF on A431 cells (human) (UniProt P13726); assay: flow; conditions: Fc fusion; remark: listed apart in the source

Chain of UniProt P13726 (P13726 33-295): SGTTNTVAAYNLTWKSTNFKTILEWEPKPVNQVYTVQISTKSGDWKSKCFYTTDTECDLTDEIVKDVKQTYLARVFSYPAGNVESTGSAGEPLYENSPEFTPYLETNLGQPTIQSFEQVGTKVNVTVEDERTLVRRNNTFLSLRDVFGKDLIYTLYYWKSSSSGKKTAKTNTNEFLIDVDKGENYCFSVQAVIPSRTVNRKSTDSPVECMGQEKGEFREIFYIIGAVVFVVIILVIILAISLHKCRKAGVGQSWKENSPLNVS

EC50 [1] [nM]	EC50 [2] [nM]	Substance
12.9		ICON1_CHO
15		2-armed ICON1 [Lot 10.1.1]
2.5	3.59	ICON1_BHK
